Source: patent EP3446126B1 (Université Libre de Bruxelles, dated 2024)

Target: human DPP6 protein (as used in the affinity analysis) (human, UniProt P42658 117-865, limits assumed)
Assay: affinity analysis versus human DPP6 protein; method not stated

Sequence of human DPP6 protein (as used in the affinity analysis) (P42658 117-865 limits assumed): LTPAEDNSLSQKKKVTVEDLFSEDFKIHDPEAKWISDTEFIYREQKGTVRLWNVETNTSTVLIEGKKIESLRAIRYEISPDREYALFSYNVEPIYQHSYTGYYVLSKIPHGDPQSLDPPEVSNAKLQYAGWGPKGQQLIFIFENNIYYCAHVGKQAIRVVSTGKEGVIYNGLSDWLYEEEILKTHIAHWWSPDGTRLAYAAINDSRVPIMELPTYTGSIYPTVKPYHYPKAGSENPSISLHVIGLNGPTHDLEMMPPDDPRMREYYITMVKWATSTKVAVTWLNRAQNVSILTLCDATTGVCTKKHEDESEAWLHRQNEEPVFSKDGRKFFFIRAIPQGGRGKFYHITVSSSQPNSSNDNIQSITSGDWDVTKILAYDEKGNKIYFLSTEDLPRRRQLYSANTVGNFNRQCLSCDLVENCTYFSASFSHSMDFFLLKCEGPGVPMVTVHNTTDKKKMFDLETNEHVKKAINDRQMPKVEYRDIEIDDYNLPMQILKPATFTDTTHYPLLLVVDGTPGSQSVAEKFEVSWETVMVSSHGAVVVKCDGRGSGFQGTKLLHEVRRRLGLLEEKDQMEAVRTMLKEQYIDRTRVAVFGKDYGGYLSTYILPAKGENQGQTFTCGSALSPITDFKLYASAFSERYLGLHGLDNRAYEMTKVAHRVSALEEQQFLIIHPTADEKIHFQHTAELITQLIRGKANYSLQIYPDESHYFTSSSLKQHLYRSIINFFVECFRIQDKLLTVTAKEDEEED

B1: nanobody 4hD29 (VHH)
VHH: QVQLQESGGGLVQPGGSLRLSCAASGFTFSSNYMTWVRQAPGKGPEWVSGINPDGSSTYYADSVKGRFTISRDNAKNTLYLQMNSLKSEDTALYKCATGAAPRIPTTLRGQGTQVTVSS
notes: Dromedary nanobody from an immune phage display library; also called Nb 4hD29; 4hD29 Nb
Kd: 1.2 nM
